Patent publication US10597674B2, “HPPD variants and methods of use” (BASF Agricultural Solutions Seed, US LLC, priority 2015, dated 2020)

Assays:
soybean shoots = assay: Soybean transformation, selection of shoots with tembotrione; type: in vivo; settings: wild-type soybean shoots treated with selection marker
Description: Soybean transformation was achieved by using methods well known in the art, such as the one described using the Agrobacterium tumefaciens mediated transformation soybean half-seed explants using essentially the method described by Paz et al. (2006), Plant cell Rep. 25:206. Transformants were identified by using the HPPD inhibitor herbicide “tembotrione” as selection marker. The appearance of green shoots was observed, and documented as an indicator of tolerance to the HPPD inhibitor herbicide tembotrione.

[1] = target: HPPD polypeptides (wild-type SEQ ID NO:1 and mutants) (Pseudomonas sp., UniProt P80064, A172V/A339V/A53E/D148E/D45N/E105D/E287Q/E300V/E334P/F143Y/G286D/G335H/H150N/H254A/H63N/I158V/I187A/I249V/I344V/K92N/L18F/N24G/N280D/N336S/P267G/S245T/S257K/S301E/T205S/T269E/V65I); settings: compared with SEQ ID NO: 24; Table 3a and 3c
[2] = tested on: E. coli cells expressing an HPPD polypeptide; assay: Brown Color Assay on solid LB-agar, visual score of brown pigment; type: cell-based; settings: 25, 50, 100, 250 and 500 μM Cmpd. 1
How it was run: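 E. coli expressing mutant HPPD, diluted to OD600 1, spotted in triplicate on LB-agar with 5 mM tyrosine, 42 mM succinate and 0, 25, 50, 100, 250 or 500 μM Cmpd. 1. Incubated 24 h at 30 °C, then kept dark at room temperature. Brown pigment scored visually at 7 days as ++, + or 0.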

[3] = tested on: HPPD polypeptides (wild-type SEQ ID NO:1 and mutants); settings: 50 μM Cmpd. 1, low substrate concentration (Table 5)
[4] = target: HPPD polypeptides (wild-type SEQ ID NO:1 and mutants) (Pseudomonas sp., UniProt P80064, A172V/A339V/A53E/D148E/D45N/E105D/E287Q/E300V/E334P/F143Y/G286D/G335D/H150N/H254A/H63N/I158V/I187A/I249V/I344V/K92N/L18F/N24G/N280D/N336S/P267G/S245T/S257K/S301E/T205S/T269E/V65I); settings: 50 μM Cmpd. 1, low substrate concentration
[5] = tested on: HPPD polypeptides (purified, wild-type SEQ ID NO:1 and mutants); assay: Coupled HPPD activity assay: ki determination, competitive inhibition fit; type: biochemical, Pseudomonas fluorescens; settings: inhibitor Cmpd. 1
Method: For the generation of purified HPPD polypeptide samples, cells were grown for 3 h at 37° C. in 5 ml LB medium containing 100 μg/ml ampicillin in a 50 ml shaker flask at 140 rpm. One ml of this starter culture was used as inoculum for the expression culture. […] At an OD600 of about 0.6, IPTG (Roth, Karlsruhe, Germany) was added to a concentration of 0.4 mM. After further growth for 60 min at 37° C., the temperature was reduced to 28° C. and growth continued for another 18 h at 140 rpm. Cells were harvested by centrifugation at 4° C., 3200 g for 30 min in 50 ml Falcon tubes and cell pellets were stored at −80° C. […]
The resulting protein samples were re-buffered into 20 mM Tris, 20% Glycerol (pH 7.8) (Sigma-Aldrich, St. Louis, USA) by use of Zeba™ Spin Desalting Columns, 7K MWCO, 10 mL (Thermo Fisher Scientific, Waltham, USA) and analysed for protein concentration and purity by Abs280 (NANODROP 8000, Thermo Fisher Scientific, Waltham, USA) and SDS-PAGE. […]
The mutant HPPD polypeptides represented here are examples by a way of illustration, not by a way of limitation. […] The inhibitor concentrations were adopted for the respective HPPD polypeptide/inhibitor pairs to generate dynamic data, i.e. variants with lower tolerance were analyzed in a range of lower inhibitor concentrations, and concentrations of up to 1200 μM were used for variants with maximized tolerance. […]

[6] = target: HPPD polypeptides (wild-type SEQ ID NO:1 and mutants) (Pseudomonas sp., UniProt P80064, A172V/A339V/A53E/D148E/D329H/D45N/E105D/E287Q/E300V/E334P/F143Y/G286D/G335D/H150N/H254A/H63N/I158V/I187A/I249V/K92N/L18F/M263R/N24G/N280D/N336S/S245T/S257K/S301E/T205S/V65I); settings: compared with SEQ ID NO:12; Tables 3a, 3b
[7] = tested on: transgenic T1 soybean events; assay: Field trials of T1 soybean events, leaf damage eight days after application; type: in vivo
How it was run: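 T1 soybean events carrying the HPPD inhibitor tolerant polypeptide, field-grown and sprayed with isoxaflutole 210 g/ha or Cmpd 150 g/ha. Leaf damage scored eight days after application; good tolerance defined as ≤15% damaged leaf area, reported as event frequency.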

[8] = 150 g/ha Cmpd. 1, stage V2-V4, eight days after application
[9] = 210 g/ha isoxaflutole, stage V2-V4, eight days after application

Molecule: CS(=O)(=O)c1ccc(C(=O)C2C(=O)CCCC2=O)c(Cl)c1COCC(F)(F)F [tembotrione, 2-[2-chloro-4-(methylsulfonyl)-3-[(2,2,2,-trifluoroethoxy)methyl]benzoyl]-1,3-cyclohexanedione]
- appearance of shoots (soybean shoots): entirely bleached

B1: SEQ ID NO:31 (protein)
chain: MADLYENPMGLMGFEFIEFASPTPGTLEPIFEIMGFTKVATHRSKNVHLYRQGEINLILNNEPNSIASYFAAEHGPSVCGMAFRVKDSQKAYNRALELGAQPIHIDTGPMELNLPAIKGIGGAPLYLIDRFGEGSSIYDIDFVYLEGVERNPVGAGLKVIDHLTHNVYRGRMVYWANFYEKLFNFREARYFDIKGEYTGLTSKAMSAPDGMIRIPLNEESSKGAGQIEEFLMQFNGEGIQHVAFLTDDLVKTWDALKKIGMRFMTAPGDEYYEMLEGRLPDHGEPVDQLQARGILLDGSSVEGDKRLLLQIFSETLMGPVFFEFIQRKGDDGFGPHSFKVLFESVERDQVRRGVLTAD
modifications: mutant HPPD polypeptide
- residual turnover in the presence of Cmpd. 1 and MST, in words [1]: increase significantly
- brown coloring compared with SEQ ID NO: 2, in words [2]: stronger brown coloring

B2: SEQ ID NO:17 (protein)
chain: MADLYENPMGLMGFEFIEFASPTPGTLEPIFEIMGFTKVATHRSKNVHLYRQGEINLILNNEPNSIASYFAAEHGPSVCGMAFRVKDSQKAYNRALELGAQPIHIDTGPMELNLPAIKGIGGAPLYLIDRFGEGSSIYDIDFVYLEGVERNPVGAGLKVIDHLTHNVYRGRMVYWANFYEKLFNFREARYFDIKGEYTGLTSKAMSAPDGMIRIPLNEESSKGAGQIEEFLMQFNGEGIQHVAFLTDDLVKTWDALKKIGMRFMTAPGDEYYEMLEGRLPDHGEPVDQLQARGILLDGSSVEGDKRLLLQIFSETLMGPVFFEFIQRKGDDGFGPDSFKVLFESVERDQVRRGVLTAD
modifications: mutant HPPD polypeptide
- Residual activity [3]: 29%
- reduction of substrate turnover [4]: 46%
- increase of ki towards Cmpd. 1 compared to SEQ ID NO:2 [5]: ~20 fold

B3: SEQ ID NO: 18: mutant HPPD polypeptide: M264R D330H E335P G336D N337S A340V (protein)
chain: MADLYENPMGLMGFEFIEFASPTPGTLEPIFEIMGFTKVATHRSKNVHLYRQGEINLILNNEPNSIASYFAAEHGPSVCGMAFRVKDSQKAYNRALELGAQPIHIDTGPMELNLPAIKGIGGAPLYLIDRFGEGSSIYDIDFVYLEGVERNPVGAGLKVIDHLTHNVYRGRMVYWANFYEKLFNFREARYFDIKGEYTGLTSKAMSAPDGMIRIPLNEESSKGAGQIEEFLMQFNGEGIQHVAFLTDDLVKTWDALKKIGMRFRTAPPDTYYEMLEGRLPDHGEPVDQLQARGILLDGSSVEGDKRLLLQIFSETLMGPVFFEFIQRKGHDGFGPDSFKVLFESIERDQVRRGVLTAD
modifications: mutant HPPD polypeptide
notes: mutant HPPD polypeptide: M264R D330H E335P G336D N337S A340V
- HPPD inhibitor tolerance towards Cmpd. 1 and Cmpd. 2, in words [6]: further significant improved
- Frequency in the population (events with ≤15% leaf damage) [7, 8]: 60%
- Independent events with ≤15% leaf damage after spray [7, 8]: 12
- Frequency in the population (events with ≤15% leaf damage) [7, 9]: 60%
- Independent events with ≤15% leaf damage after spray [7, 9]: 12
